Test results from the RNAGym collection of RNA variant scans (doi:10.7554/elife.90254).

B1: OR4K15 (parent)
chain: GUUAACGGUCAUAGGCCAUGGAAACUAGGAGCACCAUUUCGCUGCCAGUGAAGAAAUGAACAAAGAAAAUCUGGGCCAGGCAGGCAUCAAAAGAAAUAGUCUUGCGCUCAACCAGAAAGUCUGUAAUCAUUUUAAGGGUA

Variants of: B1
Assay: self-cleavage, relative activity (ratio to wild type); higher = more cleavage; in vitro, sequencing; the parent is a self-cleaving ribozyme
Work on A82G G138A yielded a self-cleavage of 0.49. In the case of G84A U108C, the self-cleavage is reported as 0.01. G80A A129U showed a self-cleavage of 0.02. For A82G A134G, the self-cleavage was 0.54. For A82G A117C, the self-cleavage was 0.06. In the case of A82U A98G, the self-cleavage is reported as 0.06. Work on G79A U139C yielded a self-cleavage of 0.11. With A82G U133C the self-cleavage was 0.72. With A82G A118C the self-cleavage was 0.28. A82U A116G showed a self-cleavage of 0.09. For G80A A90G, the self-cleavage was 0.18. A82C A90G showed a self-cleavage of 0.15. In the case of G80A A116G, the self-cleavage is reported as 0.03. In the case of A82G A135G, the self-cleavage is reported as 0.58. Work on C81A G104A yielded a self-cleavage of 0.67. G84C A114G showed a self-cleavage of 0.05. G79C U120A gave a self-cleavage of 0.04. For G83A U87C, the self-cleavage was 1.21. Work on G83A U102C yielded a self-cleavage of 0.44. Variant A82C C109U has a self-cleavage of 0.07. With A82G A96U the self-cleavage was 0.45. Variant A82G A96G has a self-cleavage of 0.59. G79U G99A showed a self-cleavage of 0.03. G84A A96G showed a self-cleavage of 2.43. Work on G84A A96U yielded a self-cleavage of 2.46. G79U A116U showed a self-cleavage of 0.03. With A82U U97A the self-cleavage was 0.34. Variant A82U U97C has a self-cleavage of 0.06. A82U A125G gave a self-cleavage of 0.03. A82U A125C gave a self-cleavage of 0.29. For G83A U131C, the self-cleavage was 1.28. Variant C81U U131C has a self-cleavage of 0.37. Variant A82G U127A has a self-cleavage of 0.58. In the case of G79C A91G, the self-cleavage is reported as 0.09. For A82C A89G, the self-cleavage was 0.16. A82G A116G gave a self-cleavage of 0.26. With A82U G138A the self-cleavage was 0.17. With G80A A135G the self-cleavage was 0.31. For A82U A86U, the self-cleavage was 0.32. Work on A82U A86G yielded a self-cleavage of 0.12. Work on G84A A92U yielded a self-cleavage of 2.15. For G83A A118G, the self-cleavage was 1.41. With A82U U100C the self-cleavage was 0.5. A82U A126C gave a self-cleavage of 0.05. In the case of A82G C113U, the self-cleavage is reported as 0.05. For A82C A117G, the self-cleavage was 0.15. G79U U132C gave a self-cleavage of 0.09. Variant G84C A111G has a self-cleavage of 0.02. G83A A86G showed a self-cleavage of 2.15. G83A A86U gave a self-cleavage of 2.81. C81A A86G showed a self-cleavage of 0.16. C81U A111U showed a self-cleavage of 0.05. Variant G83U A110G has a self-cleavage of 0.06. A82C A135G showed a self-cleavage of 0.15. Work on A82U A134G yielded a self-cleavage of 0.16. With G79U A129G the self-cleavage was 0.04. With A82G G106C the self-cleavage was 0.01. A82G G106A gave a self-cleavage of 0.01. Variant A82C A98G has a self-cleavage of 0.09. With A82G A92G the self-cleavage was 0.67. A82G A92C gave a self-cleavage of 0.78. G83U U122A gave a self-cleavage of 0.15. Variant G79C U97A has a self-cleavage of 0.05. G83U U108C gave a self-cleavage of 0.02. Variant G84U U108C has a self-cleavage of 0.02. With A82G A98G the self-cleavage was 0.27. In the case of C81U A96G, the self-cleavage is reported as 0.43. For A82U U133C, the self-cleavage was 0.07. For G80A U102C, the self-cleavage was 0.42. Work on C81U U103A yielded a self-cleavage of 0.1. In the case of C81U U132C, the self-cleavage is reported as 0.5. For A82U A140G, the self-cleavage was 0.23. G83A C109U showed a self-cleavage of 0.71. A82U C105U gave a self-cleavage of 0.01. Work on A82G U103C yielded a self-cleavage of 2.05. With A82G U100A the self-cleavage was 0.25. For C81A A82G, the self-cleavage was 0.13. Work on C85A yielded a self-cleavage of 1.18. G80A U108C gave a self-cleavage of 0.01. A82U A94C gave a self-cleavage of 0.06. In the case of A82U A94U, the self-cleavage is reported as 0.21. For G84U A110U, the self-cleavage was 0.44. In the case of G83U C88U, the self-cleavage is reported as 1.11. A82C U131A gave a self-cleavage of 0.14. For A82C A134G, the self-cleavage was 0.17. Work on G84A U102A yielded a self-cleavage of 2.02. Variant G84A U102G has a self-cleavage of 1.29. G83A A117U showed a self-cleavage of 1.21. For A82G U124A, the self-cleavage was 0.32. In the case of G84C A89G, the self-cleavage is reported as 0.34. Variant G80A A86U has a self-cleavage of 0.24. In the case of G80A A96G, the self-cleavage is reported as 0.18. A82G C121U showed a self-cleavage of 0.91. For C85A A125G, the self-cleavage was 0.72. Work on A82G A89G yielded a self-cleavage of 0.45. Variant A82G A89U has a self-cleavage of 0.51. G80A U132C gave a self-cleavage of 0.08. Work on A82G U122A yielded a self-cleavage of 0.11. With G80A A82C the self-cleavage was 0.14. Work on C81A U103C yielded a self-cleavage of 0.13. Work on A82U U87C yielded a self-cleavage of 0.22. With A82C C105U the self-cleavage was 0.02. With A82G U131C the self-cleavage was 0.45. Variant G80A A114U has a self-cleavage of 0.05. In the case of A82U A111U, the self-cleavage is reported as 0.04. Work on A82U C101U yielded a self-cleavage of 0.04. Variant C81A U132C has a self-cleavage of 0.29. G79U U87C gave a self-cleavage of 0.11. In the case of A82G U108A, the self-cleavage is reported as 0.04. A82G U108C showed a self-cleavage of 0.02. A82U G123A gave a self-cleavage of 0.19. Variant A82U U131A has a self-cleavage of 0.07. A82U U131C showed a self-cleavage of 0.24. Work on A82U U108C yielded a self-cleavage of 0.01. G79U showed a self-cleavage of 0.06. G79C gave a self-cleavage of 0.08. With G79U A96U the self-cleavage was 0.13. With G79A U132C the self-cleavage was 0.1. With G84U A114G the self-cleavage was 0.45. In the case of A82C A94G, the self-cleavage is reported as 0.19. Work on G83A G93U yielded a self-cleavage of 2.03. G80U A86U gave a self-cleavage of 0.23. Work on A82U A117U yielded a self-cleavage of 0.23. A82U A117G gave a self-cleavage of 0.28. For A82U A117C, the self-cleavage was 0.04. A82G A110G gave a self-cleavage of 0.07. Work on A82G G123A yielded a self-cleavage of 0.75. A82U A129G showed a self-cleavage of 0.08. A82G gave a self-cleavage of 0.4. A82U gave a self-cleavage of 0.14. A82C showed a self-cleavage of 0.07. With G79C A116G the self-cleavage was 0.03. C81A A90G showed a self-cleavage of 0.07. For G83A U122C, the self-cleavage was 1.87. G83U U127C gave a self-cleavage of 0.29. Work on G83A U120C yielded a self-cleavage of 1.74. Variant G84C U100C has a self-cleavage of 0.27. A82C A91U gave a self-cleavage of 0.3. With A82U U122G the self-cleavage was 0.28. Work on A82G A129U yielded a self-cleavage of 0.22. G84A A117G gave a self-cleavage of 2.38. G79U U102C showed a self-cleavage of 0.06. Work on G84A A86G yielded a self-cleavage of 1.73. A82C G119A gave a self-cleavage of 0.17. In the case of A82G A126C, the self-cleavage is reported as 0.41. G79A U127C gave a self-cleavage of 0.06. Variant A82G U139C has a self-cleavage of 0.39. With A82G U120C the self-cleavage was 0.11. In the case of A82G G136A, the self-cleavage is reported as 0.9. For C81U A94G, the self-cleavage was 0.41. Variant A82G A91U has a self-cleavage of 0.59. For C81U U122C, the self-cleavage was 0.29. With A82C A114U the self-cleavage was 0.02. Variant A82C A114G has a self-cleavage of 0.05. Work on A82U U127A yielded a self-cleavage of 0.04. For G80A A125U, the self-cleavage was 0.24. In the case of G83A A89U, the self-cleavage is reported as 1.82. Variant A82U A92G has a self-cleavage of 0.22. A82G C128U showed a self-cleavage of 0.33. With A82U A95G the self-cleavage was 0.51. A82U A95C gave a self-cleavage of 0.12. A82U A135G gave a self-cleavage of 0.22. A82U A135U showed a self-cleavage of 0.12. Variant G83U U102C has a self-cleavage of 0.35. For C81U A134G, the self-cleavage was 0.53. For A82G A86U, the self-cleavage was 0.88. For A82G U132A, the self-cleavage was 0.91.
